Assay results taken from the DeepSol protein solubility set.

experiment: soluble on expression in E. coli; label from the status in PepcDB or PDB records

| Sequence | soluble on expression in E. coli |
| --- | --- |
| MGSDKIHHHHHHMTNANGNLKKCPITISSYTLGTEVSFPKRVKVAAENGFDGIGLRAENYVDALAAGLTDEDMLRILDEHNMKVTEVEYITQWGTAEDRTAEQQKKEQTTFHMARLFGVKHINCGLLEKIPEEQIIVALGELCDRAEELIIGLEFMPYSGVADLQAAWRVAEACGRDNAQLICDTWHWARANQTAESIKNVPADRIVSIQLCDVHETPYKELREESLHDRLAPGEGYGDTVGFAKILKEHGVNPRVMGVEVISDSMVATGLEYAALKVYNATKKVLDEAWPEISPR | soluble |
| MFREESRSVPVEEGEVYDVTIQDIARQGDGIARIEGFVIFVPGTKVGDEVRIKVERVLPKFAFASVVE | soluble |
| MHHHHHHAMNHETFLKRAVTLACEGVNAGIGGPFGAVIVKDGAIIAEGQNNVTTSNDPTAHAEVTAIRKACKVLGAYQLDDCILYTSCEPCPMCLGAIYWARPKAVFYAAEHTDAAEAGFDDSFIYKEIDKPAEERTIPFYQVTLTEHLSPFQAWRNFANKKEY | soluble |
| MKSLETMARYKKELTECARNLKLPFLAEHLDEILHEAQEKQQTYSEFLSTCLMRELRDKERRSYLTRLKFAGLPARYDLDLYDFSRTEGIDQRQMRELRELVWIRRTYNLLLVGDSGTGKTFIASGLIHEAVKAGYKAYLLTLEELFVCLKTKEISRPAMKTYKRIMKAQLLAIDDVTLFPLKGEDVLLLFKLVNCVQGKTSLIITASRDLTGWLEMAGDEVCAAALLDRLLYCCEIIRLSGKSYRMENRKTIFSNQQIGTASLEHHHHHH | not soluble |
| MNDQEFFTVHHALTINVEPLAEHFTLPSHEIFEAEIPAPFVVASEFSQLEQLSDSARMELKNSDFKSVLQLLEAQNAKLNLLLTFMLSQQDDPQSRSATTRFGASQLTYLAKSPLQIGQKVRVKLFLEYPAAAIYCYASVMQCQQEPEHTLVTLKYDLLRDVDQDLLIKAALYQQQRLLRQRSLDREKPQA | soluble |
| MGSDKIHHHHHHMSIYNSIGLHYSKTRVPDIRIVNKIIDLLNLPKNSIIADIGAGTGGYSLALANKGFLVNAIEPSLVMQKQAVEHPQVKWFTGYAENLPLLDNSVDTVVSILAIHHFSHLPKAFQEMHRIIKNGAIILLTFDIRLAQKIWLYDYFPFLWEDALQFLPLNEQINLIQINTKRRVEAIPLLLPYDLSDLFAAAGWRRPELYLQAEVRAGISSLALANQDLVDQGVKLLTADLSSEKWRKQYGDIHNLTEIDIGYRFIHTTLNN | not soluble |
| MSLNKTKDIAASPLCFVSPYPQLAKAAEALVAQLDYAVTIHQTTLNRILDELPLLESRGHQVLISRGGCAEILKKHSKLPVVEIKMSGYDILDALIPFKGQKGTVGIVGFSSVIKGCARVAEQLNINYKIFTLQGNDKETISCLKRQLASTPLDCIVGDTVCQDYFSPLGSQFRLLDSSPASITEALEEARSLYLAFRSQLLERHHLQLILDQFDKAVITLDDTGALLHYNKYASQLFKINASGEIYDASFLKQVLHQERHTLREGKTVSAKVVDTPQGAMVVNLYPVFAARQLSRVVLTMQTVSSLQGAEHHVRRQELSRRGLSAREGHHHHHH | soluble |
| MFDYSAHPELLKGRVILVTGAARGIGAAAARAYAAHGASVVLLGRTEASLAEVSDQIKSAGQPQPLIIALNLENATAQQYRELAARVEHEFGRLDGLLHNASIIGPRTPLEQLPDEDFMQVMHVNVNATFMLTRALLPLLKRSEDASIAFTSSSVGRKGRANWGAYGVSKFATEGLMQTLADELEGVTAVRANSINPGATRTGMRAQAYPDENPLNNPAPEDIMPVYLYLMGPDSTGINGQALNAQ | soluble |
| YEMSSVGVINLRNMYSTYDPTEVKGKINEGPPFSGSLFYKNIPYGNSSIELKVEMNSVEKANFFSGKRVDIFTLEYSPPSNSNIKKNSYGGITLSDGNRIDKKNIPVNIFIDGVQQKYSYTDISTVSTDKKEVTIQELDVKSRYYLQKHFNIYGFGDVKDFGRSSRFQSGFEEGNIIFHLNSGERISYNMFDTGHGDRESMLKKYSDNKTAYSDQLHIDIYLVKFNK | soluble |
| MSERPVHEYIKELSEALVQLSDKVLQNFNEALYAVTHKDVQSARKIRIVDDEIDQTEVKLEERCLAFLALQQPVARDLRTMVTIIKINDDLERIGDLAVHIIERMPALGHEVMERYQFEKMGNLSATMVRKAIEAFVTRDRLLADNVCAMDEDVDAMHRMIFKKVADAMKACNTDTEQLLAVLSVSRYIERMADHATRIAREVIYLVTGEIVRHSDDTFEKLIQSLKD | soluble |
| MEYLFLRRKRTTATSERQKTLLFKAAERQWKEEFAGKETDIRKVDCNIYKGILYQLEIRQVFLDTSLSLKKLSALLETNQTYLSNVVNKYFGCNLKELVNTYRVEYAKELLCSRRCALTELPCSCGFASKSAFYSAFSRIVGVSPLSYQTQERRRHHLQAVNLEHHHHHH | not soluble |
| MPKQKASYEALLEEVVETLKHSPDGVNEIVESSAKYVDAANDLTKDELALISAYVKADLKEFSQSFEQSKSSPFYLMITNSIWQGLLDITDRTKVEWVELFADLEHQGLYQAGDMIGLGVLICDQCGHKTEFNHPTEIEPCSQCGGKAFSRQPLKP | not soluble |
| MSLEAKVDKPRLNQEQAIAIAAVNSQQGFGCFLLEGVTGSGKTEVYLNLITPVLARGEQALVLVPEIGLTPQTINRFRQRFNVPVEVMHSALNDTERLNAWLAARDKVAGIVIGTRSALLTPFAKLGIIIVDEEHDSSYKQQDSLRYHARDVAVMRAHLENIPIVLGSATPALETLHNALSGKYHHLQLTQRAGNALPTRNHALDVKGLYLESGLSAPLIAEMRRHLSAGNQVMLFLNRRGFSPALMCHECGWIAECQRCDAYYTYHQHSNEMRCHHCGSQRPVLHQCKGCGSTQLVTVGVGTEQLEAQLHTLFPEYRSVRIDRDSTRRKGSLESALTAIRKGEYQILIGTQMLAKGHHFPDVTLVALLDVDGSLYSSDFRASERLAQLFIQVAGRAGRASKPGEVVLQTHHPEHSLLQALLHKDYHHFALTALEERKLAQLPPYSFLSLFRAEANHTAQVEDFLRQVRETLRCNPWFDSECMVLGPTPAPLAKRAGKFRWQLLLQTPNRTLMQKILQSARPALQQLPLASKVRWSIDIDPQDLSEGHHHHHH | not soluble |
| MSARVRPFLMFQGVQAEAAMNFYLSLFDDAEILQIQRYGAEGPGPEGSVLKALFRLGDQSVHCIDSHVRHAFDFTPAFSFFVDCESNAQIERLAEALSDGGKALMPLGDYGFSQRFAWLADRFGVSWQLNLA | soluble |
| MQLNATQLQAALPWDSLIEALKDIFVREVCSPVRHHHSINVPDKLSATLLLMPAWLEGEYLGIKQVNVFPSNNVSNIPALSSHYMLSCGKTGQPLMQLDGNELTARRTAAASALASAYLSREDARVMLMVGSGRMARRLITAHMSVRPIKIVQVWDRKEEKAQTLVTELKESGINAEVCKPDNLQAAAQQADIISCATMATSPLILGKWLKPGAHLDLVGSFTPTMRETDNAAMQLCSVFVDTRAGALSETGDLIIPIRDGAITQEKIIAEFTQLCSGEHRGRADLANPDNSITLFKSVGDSREDLAAAILAFEQCNQR | not soluble |
| MEWLNEPPNWSHSDQKIIVTTSPKTDFWRITHYGFIRDSGHFYFDRVSTDFVVDVKIKGNYKDLYDQAGIMIRADEQHWIKTGIEYVDGVQNLSAVVTHNYSDWSFTPLLNPPNIFQVRVERCQEAIHIAYLDEYSRYVPFRMAYFPVALDIQVGIMCASPQGNGYEVIFEDYQLTKKGEKLSLEHHHHHH | not soluble |
| MRVRIVGAPSLLVGVISDTHDNLALARRAGEIFARERVEAVIHLGDYVAPFTLAELLGVVGGKAVFYGVFGNNDGERLGLSRVAGGFGASLLDPPATVSIGGRRLLLLHGFGSPENTVELVDALASSGRWDAVLYGHTHKARVERVGGSLVLNPGDGGGSLEKPSAAILDLESMEARLVSLEGAAALEHHHHHH | not soluble |
